Measured values published in PMC4686657.

Molecular target: GST-E2f1 (UniProt Q01094)
Assay: EMSA
Details: increasing GST-E2f1, constant probe, EMSA: 20 mM HEPES, 10 mM KCl, 0.2 mM EDTA, 10% glycerol, 5 mM DTT (7 ul Binding Buffer D in 20 ul), 50 ng poly dI:dC, 0.15% NP-40, 1 ug BSA, 5 ug nuclear …

Sequence of UniProt Q01094 (Q01094 whole entry): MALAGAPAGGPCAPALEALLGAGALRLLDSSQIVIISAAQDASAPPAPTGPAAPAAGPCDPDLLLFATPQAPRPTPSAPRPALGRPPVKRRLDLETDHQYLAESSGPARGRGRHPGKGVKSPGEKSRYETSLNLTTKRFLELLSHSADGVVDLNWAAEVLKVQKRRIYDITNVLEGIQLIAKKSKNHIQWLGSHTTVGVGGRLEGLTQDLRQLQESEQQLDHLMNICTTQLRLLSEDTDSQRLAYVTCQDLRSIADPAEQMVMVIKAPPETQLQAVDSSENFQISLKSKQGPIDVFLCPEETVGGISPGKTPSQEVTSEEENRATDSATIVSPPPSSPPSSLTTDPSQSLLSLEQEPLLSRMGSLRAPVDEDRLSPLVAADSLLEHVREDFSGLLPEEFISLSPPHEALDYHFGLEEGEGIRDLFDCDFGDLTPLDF

| Sequence | binding signal (reference (Pfkl T-stretch is 1.88-fold)) | binding signal (scale: fold signal vs Pfkl probe) |
| --- | --- | --- |
| CAGGCGACAGCGGCGCGGAACGCAG (double strand) [Pfkl probe] | 1 |  |
| CAGGCTTTTTCGGCGCGGAACGCAG (double strand) [Pfkl T-stretch probe] |  | 1.88 |
